The target of data set [1] is NACC2(D31N/R45Q)-NTRK2 (UniProt Q96BF6). Briefly: non-reducing SDS-PAGE and immunoblot of multimers; HEK293T lysates in E1A buffer (250 mM NaCl, 50 mM HEPES, 5 mM EDTA, 0.1% NP-40); non-reducing sample buffer (4% SDS, 10 mM NaPO4 pH 7.0); immunoblot for NACC2 or NTRK2; multimer/monomer band ratio by ImageJ, three replicates. In general terms: Immunoblotting shows a protein as a band on a membrane.

Data set [2] addresses NACC2-NTRK2(ex4:ex13) fusion protein (UniProt Q96BF6). The description is as above.
For data set [3], the target named is NACC2(Y86A)-NTRK2 (UniProt Q96BF6). Described as above.
The target in data set [4] is NACC2-NTRK2(ex4:ex13) fusion protein (UniProt Q96BF6). Briefly: co-IP; fusion protein co-expressed with NACC2 in HEK293T; E1A buffer; immunoprecipitation with antibodies against NTRK2 and Protein A-Sepharose at 4°C, immunoblot for NACC2; ratio of NACC2 to the co-immunoprecipitated fusion by ImageJ.
The target of data set [5] is NACC2(Y86A)-NTRK2 (UniProt Q96BF6). Described as above.
Data set [6] concerns the target NACC2(D31N/R45Q)-NTRK2 (UniProt Q96BF6). The description is as above.
Data set [7] deals with the molecule itself. As to the kind of experiment: non-reducing SDS-PAGE and immunoblot of multimers; HEK293T lysates in E1A buffer (250 mM NaCl, 50 mM HEPES, 5 mM EDTA, 0.1% NP-40); non-reducing sample buffer (4% SDS, 10 mM NaPO4 pH 7.0); immunoblot for NACC2 or NTRK2; multimer/monomer band ratio by ImageJ, three replicates.

For the molecule “NACC2(D31N/R45Q)-NTRK2 (from UniProt Q96BF6 1-418; Q16620 397-822)”, the ratio of the multimer band to the monomer band in data set [1] is 18%.

Turning to “NACC2-NTRK2(ex4:ex13) fusion protein (from UniProt Q96BF6 1-418; Q16620 397-822)”, in data set [2], the ratio of the multimer band to the monomer band stood at 44%.

Consider “NACC2(Y86A)-NTRK2 (from UniProt Q96BF6 1-418; Q16620 397-822)”, for which the ratio of the multimer band to the monomer band in data set [3] stood at 12%.

B1: Nucleus Accumbens-associated protein 2 (NACC2), wild type (natural protein, human, UniProt Q96BF6 1-587, looked up)
chain: MSQMLHIEIPNFGNTVLGCLNEQRLLGLYCDVSIVVKGQAFKAHRAVLAASSLYFRDLFSGNSKSAFELPGSVPPACFQQILSFCYTGRLTMTASEQLVVMYTAGFLQIQHIVERGTDLMFKVSSPHCDSQTAVIEDAGSEPQSPCNQLQPAAAAAAPYVVSPSVPIPLLTRVKHEAMELPPAGPGLAPKRPLETGPRDGVAVAAGAAVAAGTAPLKLPRVSYYGVPSLATLIPGIQQMPYPQGERTSPGASSLPTTDSPTSYHNEEDEEDDEAYDTMVEEQYGQMYIKASGSYAVQEKPEPVPLESRSCVLIRRDLVALPASLISQIGYRCHPKLYSEGDPGEKLELVAGSGVYITRGQLMNCHLCAGVKHKVLLRRLLATFFDRNTLANSCGTGIRSSTSDPSRKPLDSRVLNAVKLYCQNFAPSFKESEMNVIAADMCTNARRVRKRWLPKIKSMLPEGVEMYRTVMGSAAASVPLDPEFPPAAAQVFEQRIYAERRGDAATIVALRTDAVNVDLSAAANPAFDAGEEVDGAGSVIQEVAAPEPLPADGQSPPQPFEQGGGGPSRPQTPAAAARRPEGTYAGTL
notes: NACC2, human, wild type; gene bought from Origene and subcloned into pCDNA3 by EcoRI and XbaI; Expressed alone (multimerization assay) or together with the fusion proteins (co-IP); also called wild-type NACC2; native NACC2; source: HEK293T, transfected (pCDNA3, CaCl2), in lysate (E1A buffer)
With B1, the figures for the ratio of NACC2 to the NACC2-NTRK2 fusion with which it was co-immunoprecipitated in data set [4], in data set [5] and in data set [6] were 72%, 15% and 45%, respectively. In addition, the “ratio of the multimer band to the monomer band” value in data set [7] was 7%.
